The series can be described thus: yeast display, Sf9 membrane polyspecificity reagent, FACS + sequencing; frameworks hold sequencing errors. In outline:
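Nanobodies from a synthetic yeast display library (Saccharomyces cerevisiae BJ5465), induced 36–48 hours with galactose, were stained 1 hour at 4 °C with 10% biotinylated, detergent-solubilized Sf9 membrane reagent, enriched on streptavidin microbeads, then FACS-sorted. Anti-HA (expression) and streptavidin (reagent binding) fluorescence set low and high (top ~1%) gates. Polyreactivity labels come from the gate of origin. Genes were colony-PCR amplified, MiSeq 2 × 250 sequenced and filtered by CDR length.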
On to “QVQLVESGGGLVQEGGCLRLSSAASGSIFKSNAMGWYRQAPGKERELVATISRIGGSTYYADSVKGRFTISRDNAKNTVYLQMNCLKPEDTAVYYFAARRYLYTVGYGPRRGLVYWGQGTQVTVSS”, for which the “polyreactivity (PSR sort gate)” value is given as “high polyreactivity”.

For the sequence “QVQLVESGGGLVQEGGSHSLSCAASGRTFKYKAMGWSRPAPGKERELVASISGSGGRTYYADSVKGRFTISRDIAKNSVFLQMYRLNPEDTAVYFCNATRVKWLDWGQGTQVTVSS”, the “polyreactivity (PSR sort gate)” value was “high polyreactivity”. Consider “QVQLVESGGGLVQEGGSIRLSCAASGSTFFLYAMGWYRQAPGKERELVAAITYTDGDTYYADSVKGRFTISRDNAKNTVYLQMNSLKPEDNAVYYCNAGGDEPVYGSGYDYWGQGTQVTVSS”, for which the “polyreactivity (PSR sort gate)” value is “low polyreactivity”. As for “QVQLVESGGGLVQEGGSLRLICAASGNTSPFYSMGWYRQAPGKERELVAAISANGGSTTYADSVKGRFTISRDNAKNTVYLQMNSLKTEVTAVYYCNTYYWYSGSPYVYWGQGTQVTVSS”, the “polyreactivity (PSR sort gate)” value was “low polyreactivity”. “QVQLVESGGGLVQEGGSLRLICAASGRILRDNAMGWYRQAPGKERELVAAISVSTVSTYYADSVKGLFTISRDNANNTVYFHMNSLKPEDTAVYYCNADATDSYPEKDEHDSWGQGTQVTVSS”: the “polyreactivity (PSR sort gate)” value is given as “low polyreactivity”. As to “QVQLVESGGGLVQEGGSLRLICAASGRTLYHYVMGWYSQAPGKERELVAAISSGGSTYYADSVKGRFTISRDNAKNTVYLQMNSLKPEDTAVYFCAAGRRGDWGQGTQVTVSS”, the “polyreactivity (PSR sort gate)” value is “high polyreactivity”. Take “QVQLVESGGGLVQEGGSLRLRCAASGSIFYRYAMGWYRQAPGKERELVAAISSTGSTYYADSVKGRFTISRDNAKNTVYLQMNSLKPEDTAVYYCAARQGYRSYRRYDYWGQGTQVTVSS”: the “polyreactivity (PSR sort gate)” value is given as “high polyreactivity”. Take “QVQLVESGGGLVQEGGSLRLSCAACGFTFTTNAMGWYRQAPGKERELVAGITFIGGSTYYADSVKGRFTISRDNAKNTVYLQMNNLKPEDTAVYYCAAEWVLVYLQYTYEDYDYWGQGTQVTVSS”: the “polyreactivity (PSR sort gate)” value is recorded as “low polyreactivity”.

As to “QVQLVESGGGLVQEGGSLRLSCAASGFIFFLNAMGWYRQAPGKERELVAAISSSGGRTYYADSVKGRFTISRDNAKITVYLQMNSLKTEVTAVYYCNAVTLYRSRTDGYWGQGTQVTVSS”, the “polyreactivity (PSR sort gate)” value is given as “high polyreactivity”. Turning to “QVQLVESGGGLVQEGGSLRLSCAASGFIFRSYAMGWYRKAPGKERELVAAISSSGGSTYYADSVKGRFTISRDNAKNTVYLPMNSLKPEDTAVYYCAKGYQRGRDYWGQGTQVTVSS”, the “polyreactivity (PSR sort gate)” value was “high polyreactivity”. As to “QVQLVESGGGLVQEGGSLRLSCAASGFSFERNAMGWDRQAPGKERELVATIPWSGTRTNYADSVKGRFTISRDNAKNTVYVQMNSLKPEDTAVYYCAVVVSAPSRESKSTVQMDYWGQGTQVTVSS”, the “polyreactivity (PSR sort gate)” value is reported as “high polyreactivity”. In the case of “QVQLVESGGGLVQEGGSLRLSCAASGFTFGSYAMGWYRQAPGTERELLAAITTDGSTYYADSVKGRFTISRDNAKNTVYLHMNSLKREDTAVYYCAAGYSYDRYGSDMDYWGQGTQVTVSS”, the “polyreactivity (PSR sort gate)” value is reported as “low polyreactivity”.

As for “QVQLVESGGGLVQEGGSLRLSCAASGITFDNYDMGWYRQAPGKERELVAAISSDDNTTYADSVKGRFTISRDNAMNTVYFQMNSLKTDDTAVYYCAADYRIYGYLEYDYWGQGTQVTVSS”, the “polyreactivity (PSR sort gate)” value was “low polyreactivity”. Consider “QVQLVESGGGLVQEGGSLRLSCAASGITFDYYAMGLYRQAPGKERELVASISYSGGSTYADSVKGRFTISRDNAKNTVYLQMNSLKPEDTAVYYCAKDSQETAYNTVDYCGQGTQVTVSS”, for which the “polyreactivity (PSR sort gate)” value was “low polyreactivity”.

In the case of “QVQLVESGGGLVQEGGSLRLSCAASGLIVGQNAMGWYRQAPGKDRELVAAISQRGGTYYADSVKGRFTISRDNAKNTVYLQMNSLKPEDTAVLYCAARVGLQPGRYYLRYDYWGQGTQVTVSS”, the “polyreactivity (PSR sort gate)” value is “low polyreactivity”. The entry for “QVQLVESGGGLVQEGGSLRLSCAASGNTVGINAMGWYRQAPGKERELVASISFTGSSTYYADSVKGRFTISRDNAKNTVYFQMNSLKPEDTAVSYCNRDRITLYEYDYWGQGTQVTVSS” is “low polyreactivity”; for “QVQLVESGGGLVQEGGSLRLSCAASGRIIERSAMGWYRQAPGKERELVAGISISGGGTYYADSVKGRFTISRDKAKNTVYLLMNCLKPEDTSVYYCAGTFPREEYGYWGQGTQVTVSW” it is “low polyreactivity”. “QVQLVESGGGLVQEGGSLRLSCAASGRIIEYNTMGLNRPATGKERELVAAITGGTGSTYYADSVKGRFTISRDNAKNTVYLQMNSLIPVDTSVYYCNADGMILYDYWGQGTQVTVSS”: the “polyreactivity (PSR sort gate)” value is listed as “low polyreactivity”.

As to “QVQLVESGGGLVQEGGSLRLSCAASGRTFDRYAMGWYRQAPGKERELVAAITWTGGSTYYADSVKGRFTISRDNAKNTVYLQMNSLKPEDTAFYYCNRAPSRPTSKTRLYYWGKGTQVTVSS”, the “polyreactivity (PSR sort gate)” value was “high polyreactivity”.

Turning to “QVQLVESGGGLVQEGGSLRLSCAASGRTFEQNAMGWYRQAPGKERELVASITSVGSTDYADSVKGRFTISRDNAKNTVYLQMNSLKTEDTAVYYCAKTLGSQNYDFDYWGQGTQVTVSS”, the “polyreactivity (PSR sort gate)” value is “low polyreactivity”. Consider “QVQLVESGGGLVQEGGSLRLSCAASGRTFVPYAMGWYRQAPGKERELVAAISRSGGRTYYADSVKGRFTLSRDNAKNTVYLQMKSLKPEDTAVYYCAARYYSEPNAYYYWGQGTQVSVSS”, for which the “polyreactivity (PSR sort gate)” value is on record as “high polyreactivity”. For “QVQLVESGGGLVQEGGSLRLSCAASGSIFDDYAMGWYRQAPGKEWELVAAITSGGSTYYADSVKGRFTISRDNAKNTVYLQMNSLKPEDTAVYYRATRYHWSSSFAPVGAYGYWGHGTQVTVSS”, the “polyreactivity (PSR sort gate)” value is recorded as “low polyreactivity”.

As to “QVQLVESGGGLVQEGGSLRLSCAASGSIFDVYAMGWSRQGPGKERELVAAISSSGSTYYADSVKGRFTISRDNAKNTVYLQMNSLKPEDTAVYYCAAVQADDDDYYYWGQGTQVTVSS”, the “polyreactivity (PSR sort gate)” value was “low polyreactivity”. Turning to “QVQLVESGGGLVQEGGSLRLSCAASGSIFKPYAMGWYRQAPGKERELVAAINRGGTSTYYADSVKGRFTISRDNAKHTVYLQMNRLKPEDTAVYYCAAEGQDGRFYWGQGTQVTVSS”, the “polyreactivity (PSR sort gate)” value is reported as “low polyreactivity”. In the case of “QVQLVESGGGLVQEGGSLRLSCAASGSTFGLYAMGWYRQAPGKERELVAAISSRGSRTYYADSVKGRFTISRDNAKNTVYLQMNSLKPEDTAVYYCNAMYASCVRHKVTYDYWGQGTLVTVSS”, the “polyreactivity (PSR sort gate)” value is reported as “high polyreactivity”. Take “QVQLVESGGGLVQEGGSLRLSCAASGSTFNYYAMGWYRQAPGKESELVARISWSGSTYADSVKGRFTISRDNAKNTVYLQMNSLKPEDTAVYYCAAPYVLKSHRGMDYWGQGTQVTVSS”: the “polyreactivity (PSR sort gate)” value is “low polyreactivity”.

Turning to “QVQLVESGGGLVQEGGSLRLSCAASGSTISSYAMGWYRQAPGKERELVAAITSGGSTYYADSVKGRFTFSRDNAKNTVYLQMNSLKPDDTAVYYCDLGSTTMDYWGQGTQVTVSS”, the “polyreactivity (PSR sort gate)” value was “low polyreactivity”. Regarding “QVQLVESGGGLVQEGGSLRLSCADSGITFWAYAMGWYRQAPGKERELVASISSGGSTYYADSVKGRFTISRDNAKNTVYLQMNSLKPEDTAVYYCNTQDRSEYDWGQGTQVTVSS”, the “polyreactivity (PSR sort gate)” value was “high polyreactivity”.

Regarding “QVQLVESGGGLVQEGGSLRLSCADSGSISYQNAMGWYRQAPGKERELVAAISGDGDSTYYADSVKGRFTISRDNAKNTVYLQMNSLNPEDTGVYYCAAEPNVYFSVFVLFPSDYWGQGTQVTVSS”, the “polyreactivity (PSR sort gate)” value is given as “low polyreactivity”. On to “QVQLVESGGGLVQEGGSLRLSCASSGFTFAYNAMVLYRQAPGKERELVAGINSSGDGTYYADSVKGRFTISRDNAKNTVYLQMNSLKPEETAVYYCAADYTRFYPDGSDVDYDYWGQGTQVTVSS”, for which the “polyreactivity (PSR sort gate)” value is given as “low polyreactivity”.

Turning to “QVQLVESGGGLVQEGGSLSLSCAASGITFRSYTMGWYRQAPGKERELLAGITRRGGSTFYADSVKGRFTISRDNATNTVYLQMNSLNPEDTAVYFCAVGFYYLSSWYSYDYRGQGTQVTVSS”, the “polyreactivity (PSR sort gate)” value is on record as “high polyreactivity”. As to “QVQLVESGGGLVQEGRSLRLSCAASGLTFQYYAMGWYRPAPGKERELVAAISSGGDTYYADSVKGRFTISRDNAKNNVYFQMYSVKREDTAVYYCAARVVLYSRSTYYYWGQGTQVTVSS”, the “polyreactivity (PSR sort gate)” value is listed as “high polyreactivity”. Take “QVQLVESGGGLVQEGRSLRLSCAASGSIFTPYAMGWYRQAPGKERELVADINSGGSTDYADSVKGRFTISRDNAKNTVYLQMNSLKPEDTAVYYCASTWSFYFILYDYWGQGTQVTVSS”: the “polyreactivity (PSR sort gate)” value is “high polyreactivity”. Take “QVQLVESGGGLVQERGSLRLSCAASGSIFIPYARGWYRQAPGKERELVAAISLGDGKTYYADSVKGRFTISRDNAKNTVYLQMNSLKPEDTAVYYCNAVPRKFGDEYWGQGTQVTVSS”: the “polyreactivity (PSR sort gate)” value is “low polyreactivity”. For “QVQLVESGGGLVQEVGSLRLSCAATGRTFYQNVMGWSRQARGKERELVAAISQRGGRTYYADSVKGRFTISRDNAKITVYLQMNSLKPEDTEVYYCNADSTVWPYDYWGQGTQVTVSS”, the “polyreactivity (PSR sort gate)” value is given as “low polyreactivity”. The value for “QVQLVESGGGLVQGGGSLRFSCAASGSTFPSYARGWYRQAPGKERELVAAINSGGGTNYADSVKGRFTISRDNAKNTVYLHMNSLKPEDTAVYYCAKSRYDYTKTEGGYWGQGTQVTVSS” was “low polyreactivity”.

Turning to “QVQLVESGGGLVQGGGSLRLRCAASGRSFKWYAMVWYRQAPGKDRELVAGISRGAGRTYYADSEKGRFTISRDNAKNTVYLQMNSLKADDTAVYYCAAVPSYHSTSPFYYWGLGTQVTVSS”, the “polyreactivity (PSR sort gate)” value was “high polyreactivity”. The value for “QVQLVESGGGLVQGGGSLRLSCAASGFTFVYYAMGWDRQAPGKERELVAAISRSGGSTYYADSVKGRFTISRDNAKNTFYLQMNSLKPEDTAVYYCAARKNYGSRLSYEYWGQGTQVSVSS” was “high polyreactivity”; that for “QVQLVESGGGLVQGGGSLRLSCAASGLIFSYYAMGWYRQAPGKERELVAAISRGGATNYADSVKGRFTISRDTAKNTVYLQMNSLKPEDTAVYYCSARFVLRRDYGYWGQGTQVTVSS” was “high polyreactivity”; that for “QVQLVESGGGLVQGGGSLRLSCAASGLIFYRNDMVWNRQAPGKERELVDAISKNGANTYYADSVKGRFTSSRDNAKNTVYLHMNCLKREDTAVYYCAKGVYYPWWYVQPEHDYWGQVTQVTVSS” was “high polyreactivity”.

Consider “QVQLVESGGGLVQGGGSLRLSCAASGRTFYRYVMGWYRQAPGKERELVADISRRGGRTYYADSVKGRFTISRDNAKNTVYLQMNSLKPEDTAVYYCAAGQLGDYWGLGTQVTVSS”, for which the “polyreactivity (PSR sort gate)” value is “high polyreactivity”.

Values taken from the nanobody polyreactivity screen of Harvey et al. (2022).
